Consider 4 molecules from patent US6881557 (ARROWSMITH TECHNOLOGY LICENSING, dated 2005).

The target of experiment [1] is T1, human glutamic acid decarboxylase 65 kilodalton isoform (human, UniProt Q05329 1-585).
T1 construct: also called GAD65; antigen
Put plainly: immunoprecipitation of 35S-methionine labelled GAD65 with Fab and Protein G-Sepharose; midpoint read visually.

For experiment [2], the target named is T2, chicken lysozyme (chicken, UniProt P00698 19-147).
T2 construct: also called chicken lysozyme antigen
The experiment in a line: fluorescence quench titration (FIG. 7 legend); FIG. 7 legend, bound only.

The target of experiment [3] is T2, chicken lysozyme. The experiment in a line: fluorescence quench titration; reference is the literature Kd of D1.3 IgG (4 nM).
For experiment [4], the target named is T2, chicken lysozyme. Put plainly: intrinsic tryptophan fluorescence quench titration, 200 nM Fab titrated with lysozyme in solution.
The target in experiment [5] is T3, CD28Ig (human, UniProt P10747 19-152).
T3 construct: also called GD28Ig; human CD28; not shown: Ig part of CD28Ig; not described
Put plainly: ELISA on CD28Ig coated plates (FIG. 11 legend). Background: ELISA stands for enzyme-linked immunosorbent assay.

Experiment [6] has as its target T3, CD28Ig. Put plainly: ELISA, CD28Ig coated plates, detection with anti-human kappa immunoconjugate.

What is called EC50 is the concentration needed to bring the measured effect to its halfway point. The low end stands for a more potent agent, the high end for a less potent agent. For orientation: Kd means the concentration at which binding is half-saturated.

T2 sequence (P00698 19-147 limits assumed): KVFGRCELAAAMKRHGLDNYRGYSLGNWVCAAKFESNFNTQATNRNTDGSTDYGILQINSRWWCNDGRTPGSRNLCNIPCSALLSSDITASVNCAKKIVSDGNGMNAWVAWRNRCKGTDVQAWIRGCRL
T1 sequence (Q05329 whole entry, canonical isoform): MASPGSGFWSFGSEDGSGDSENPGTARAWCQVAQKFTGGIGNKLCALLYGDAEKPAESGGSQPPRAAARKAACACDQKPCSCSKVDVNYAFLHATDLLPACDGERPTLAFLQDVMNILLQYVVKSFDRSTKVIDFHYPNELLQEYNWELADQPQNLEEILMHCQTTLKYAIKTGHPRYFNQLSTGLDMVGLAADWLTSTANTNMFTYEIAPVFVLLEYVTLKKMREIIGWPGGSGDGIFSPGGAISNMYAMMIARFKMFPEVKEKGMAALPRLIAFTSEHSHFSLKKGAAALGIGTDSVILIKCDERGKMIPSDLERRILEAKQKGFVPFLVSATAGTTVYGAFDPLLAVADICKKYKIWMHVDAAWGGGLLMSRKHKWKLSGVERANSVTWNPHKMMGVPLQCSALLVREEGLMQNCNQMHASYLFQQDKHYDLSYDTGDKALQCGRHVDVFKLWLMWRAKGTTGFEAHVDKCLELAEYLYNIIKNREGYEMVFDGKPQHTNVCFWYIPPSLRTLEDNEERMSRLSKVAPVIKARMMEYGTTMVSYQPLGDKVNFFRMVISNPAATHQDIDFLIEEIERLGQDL

B1: Fab fragment comprised of mouse NGAD65 variable and constant domains (Fab, V domains shown)
VH: QVQLQQPGAELVKPGASVKMSCKASGYRFSSYNMHWVKQTPGQGLEWIGAIYPRSGDTSYNQKFKGKATLTADKSSSTAYMQLGSLTSEDSAVYYCVRSYDYDAPFAFWGQGTLVTVSA
VL: VLTQTPLSLPVSLGDQASISCRSSQSLEHNNGNTYLNWYLQKPGQSPQLLIYRVSNRFSGGLDRFSGSGSGTDFTLKISRVEAEDLGVYFCLQVTHVPFTFGSGTKLEIKR
notes: also called mouse Fab; mouse NGAD65 Fab
Take B1: it took 0.00036 nM to reach a half-maximal effect in experiment [1] (EC50).

B2: humanized D1.3 Fab (Fab, V domains shown)
VH: QVQLQESGPGLVKPSETLSLTCTVSGGSVSGYGVNWIRQPPGKGLEWIGMIWGDGNTDYNSSLKSRVTISVDTSKNQFSLKLSSVTAADTAVYYCARERDYRLDYWGQGTLVTVSS
VL: AIRMTQSPFSLSASVGDRVTITCRASGNIHNYLAWYQQKPAKAPKLFIYYTTTLADGVPSRFSGSGSGTDYTLTISSLQPEDFATYYCQHFWSTPRTFGGGTKVEIKR
notes: also called SHuD1.3; humanized D1.3 antibody
B2: the Ka in experiment [2] worked out at 4.3e+07 M⁻¹. The “factor by which affinity is diminished relative to the subject mouse antibody D1.3” value in experiment [3] was < 6 fold. Also, binding in experiment [4] was put at a Kd of 23 nM.

B3: humanized anti-human CD28 (Hu.9.3) Fab fragment (Fab, V domains shown)
VH: EVQLVQSGGGLVQPGGSLRLSCAGSGFTFSDYGVHWVRQAPGKGLEWVSAIWAGGGTNYASSVMGRFTISRDNAKNSLYLQMNSLRAEDMAVYYCARDKGYSYYYSMDYWGQGTLVTVSS
VL: DIVMTQSPDSLAVSLGERATINCRASESVEYYVTSLMAWYQQKPGQPPKLLIYAASNVESGVPDRFSGSGSGTNFSLTISSLQAEDVAVYYCQQSRKVPYTFGQGTKLEIKR
notes: also called humanized 9.3
Take B3: the Ka in experiment [5] was > 1e+06 M⁻¹. The molecule also gave a concentration for a half-maximal effect (EC50) in experiment [6] of 630 nM.

B4: hybrid Fab fragment comprised of human constant domains, mouse 9.3 heavy chain variable domain, and humanized light chain variable domain (Fab, V domains shown)
VH: EVKLQQSGPGLVTPSQSLSITCTVSGFSLSDYGVHWVRQSPGQGLEWLGVIWAGGGTNYNSALMSRKSISKDNSKSQVFLKMNSLQADDTAVYYCARDKGYSYYYSMDYWGQGTSVTVSS
VL: DIVMTQSPDSLAVSLGERATINCRASESVEYYVTSLMAWYQQKPGQPPKLLIYAASNVESGVPDRFSGSGSGTNFSLTISSLQAEDVAVYYCQQSRKVPYTFGQGTKLEIKR
For the molecule B4, a half-maximal response in experiment [6] (EC50) required 30 nM.
